Measured values as given in patent publication US20210388105A1 (ELPISCIENCE SUZHOU BIOPHARMA, published 2021).
Numbering of substitutions follows the chain as printed.

T1: KW27-1 (human CD39 mutant, C-terminal EGFP) (human, UniProt P49961 1-510)
T1 construct: expressed on HEK293F cells; not shown: C-terminal EGFP fusion (vector pCMV3-GFPSpark)
T1 chain: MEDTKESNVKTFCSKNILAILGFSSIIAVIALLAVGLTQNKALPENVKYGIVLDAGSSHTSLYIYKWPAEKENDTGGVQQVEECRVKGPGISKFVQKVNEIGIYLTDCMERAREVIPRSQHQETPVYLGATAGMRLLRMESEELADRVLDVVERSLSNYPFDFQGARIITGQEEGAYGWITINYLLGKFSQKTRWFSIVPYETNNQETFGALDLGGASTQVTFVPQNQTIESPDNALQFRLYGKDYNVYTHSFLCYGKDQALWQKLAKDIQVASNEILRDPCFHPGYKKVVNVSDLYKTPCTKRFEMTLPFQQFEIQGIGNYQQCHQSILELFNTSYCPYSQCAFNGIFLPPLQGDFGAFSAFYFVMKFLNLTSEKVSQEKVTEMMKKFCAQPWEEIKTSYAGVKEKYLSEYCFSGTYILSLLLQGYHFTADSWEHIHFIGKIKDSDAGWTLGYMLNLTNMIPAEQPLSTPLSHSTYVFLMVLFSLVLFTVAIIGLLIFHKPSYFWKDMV

T2: KW27-12 (human CD39 mutant, C-terminal EGFP) (human, UniProt P49961 1-510)
T2 construct: expressed on HEK293F cells; not shown: C-terminal EGFP fusion (vector pCMV3-GFPSpark)
T2 chain: T1 chain with G77V, Q79H, H428A, T430A, A431D, D432A, K444Q, D445G

T3: KW27-10 (human CD39 mutant, C-terminal EGFP) (human, UniProt P49961 1-510)
T3 construct: expressed on HEK293F cells; not shown: C-terminal EGFP fusion (vector pCMV3-GFPSpark)
T3 chain: T1 chain with G77V, Q79H, K288E, K289A, V290A, E315R, K444Q, D445G

T4: KW27-8 (human CD39 mutant, C-terminal EGFP) (human, UniProt P49961 1-510)
T4 construct: expressed on HEK293F cells; not shown: C-terminal EGFP fusion (vector pCMV3-GFPSpark)
T4 chain: T1 chain with G77V, Q79H, A273S, N275A, I277S, R279A, K444Q, D445G

B1: Antibody 9-8B (antibody, V domains shown)
VH: QIQLVQSGPELKKPGETVKISCKASGYTFTHYGMNWVKQAPGKGLKWMGWINTYTGELTYADDFKGRFAFSLETSASTAYLQINNLKNEDTATYFCARRAYYRYDYVMDYWGQGTSVTVSS
VL: DIVMTQSQKFMSTSVGDRVSVTCKASHNVGTNVAWYQQKPGQSPKALIYSASYRYSGVPGRFTGSGSGTDFTLTISNVQSEDLAEYFCHQYNNYPYTFGGGTKLEIK
B2: c34 (antibody, V domains shown)
VH: EIQVQQSGPELVKPGASVKVSCKASGYSFTDYNMYWVKQSHGKSLEWIGFIDPYNGYTSYNQKFKGKATLTIDKSSSTAFMHLNSLTSEDSAVYYCAIYGYDDAYYFDYWGQGTTLTVSS
VL: QIVLTQSPAIMSASPGEKVTITCSATSSVSYMHWFRQKPGTSPKLWIYSTSNLASGVPARFSGSGSGTSYSLTISRMAAEDAATYYCQQRITYPFTFGSGTKLEIT
notes: its making is not described; also called chimeric antibody c34
B3: hu23.H5L5 (antibody, V domains shown)
VH: QVQLVQSGAEVKKPGASVKVSCKASGYNLKDTFLHWVRQAPGQGLEWMGRIDPANGNIKYDPKFQGRVTITADTSANTAYMELISLRSEDTAVYYCANSPYYYGSGYRIFDVWGQGTTVTVSS
VL: QIVLTQSPATLSLSPGERATLSCSAFSSVNYMHWYQQKPGQAPRLLIYTTSNLASGIPTRFSGSGSGTSYTLTISSLEPEDFAVYYCQQRSTYPFTFGQGTKLEIK
notes: humanized c23
B4: Antibody T895 (antibody, V domains shown)
VH: EVQLQQSGPELVKPGASVKMSCKASGYTFTDYNMHWVKQSHGRTLEWIGYIVPLNGGSTFNQKFKGRATLTVNTSSRTAYMELRSLTSEDSAAYYCARGGTRFAYWGQGTLVTVSA
VL: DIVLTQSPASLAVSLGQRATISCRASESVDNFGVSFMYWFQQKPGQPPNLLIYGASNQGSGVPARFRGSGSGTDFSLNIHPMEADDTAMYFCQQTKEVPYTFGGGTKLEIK
notes: also called 31895
B5: c35 (antibody, V domains shown)
VH: EVRLQQSGAELVKPGASVKLSCTASGFNIEDTYVHWMKQRPEQGLEWIGRIDPAIDNSKYDPKFQGKATITAVSSSNTAYLQLSSLTSEDTAVYYCALYDGYNVYAMDYWGQGTSVTVSS
VL: DIVMTQAAFSNPVTLGTSASISCRSSKNLLHSNGITYLYWYLQRPGQSPQLLIYRASTLASGVPNRFSGSESGTDFTLRISRVEAEDVGVYYCAQLLELPHTFGGGTKLEIK
notes: its making is not described; also called chimeric antibody c35

Target: T1, KW27-1 (human CD39 mutant, C-terminal …)
Assay: FACS, mutant-EGFP on HEK293F cells
Method: (§1) Briefly, the human CD39 mutants were generated by gene synthesis and then cloned into an expression vector pCMV3-GFPSpark. The vectors containing the validated mutated sequences were prepared and transfected into HEK293F cells. Three days post transfection, the cells were collected to testing EGFP for transgene expression. A range of dosages of antibodies (start from 100 nM, 3-folds dilution, 11 points) were tested on the 20 generated mutants and stained by AlexFluor647 labelled anti-hIgG by FACS. Antibody binding was descripted as relative binding which is derived from AlexFluor647 intensity divided by GFP intensity.

Binder | binding result
B1 | binds
B2 | binds
B3 | binds
B4 | binds
B5 | binds

Target: T2, KW27-12 (human CD39 mutant, C-terminal …)
Assay: FACS, mutant-EGFP on HEK293F cells
Method: as §1

Binder | binding result
B1 | binds
B2 | binds
B3 | binds
B4 | binds
B5 | binds

Target: T3, KW27-10 (human CD39 mutant, C-terminal …)
Assay: FACS, mutant-EGFP on HEK293F cells
Method: as §1

Binder | binding result
B1 | binds
B2 | binds
B3 | binds
B4 | binds
B5 | binds

Target: T4, KW27-8 (human CD39 mutant, C-terminal …)
Assay: FACS, mutant-EGFP on HEK293F cells
Method: as §1

Binder | binding result
B1 | binds
B2 | binds
B3 | binds
B4 | binds
B5 | binds
